Data on one molecule can be found in patent US20220289837A1 (VIB VZW, published 2022).

Experiment [1] deals with T1, 2PT-NBD1 (human CFTR nucleotide-binding domain 1, residues 387-646, with S492P, A534P, I539T) (human, UniProt P13569 388-646, biotinylated for the ELISA (sites not given)).
T1 construct: N-terminal His6-SUMO tag removed with Ulp1; In the T2a-T4 and T27 crystals the domain was cut by papain or subtilisin
Nature of the experiment: ELISA, biotinylated 2PT-NBD1 on avidin-coated plate, T8 titrated, anti-His detection. Here is the method:
(§1) (a) Nanobody binding to 2PT-NBD1 measured by ELISA. Biotinylated 2PT-NBD1 was immobilized on avidin-coated plates and incubated with increasing concentration of each nanobody. Binding of nanobody was followed by immunodetection of the His-tag (see Methods). Representative curve of 3 independent experiments is shown. Error bars represent the standard deviation (SD) of duplicates. Data were normalized to maximum signal for each nanobody separately. (b) Nanobody binding to F508del-2PT-NBD1 measured by ELISA as described in panel a. (c) Nanobody T4 binding to 2PT-NBD1 and F508del-2PT-NBD1. Data were normalized to maximum signal of T4 binding to 2PT-NBD1. (d) Nanobody T8 binding to 2PT-NBD1 and F508del-2PT-NBD1. Data were normalized to maximum signal of T8 binding to 2PT-NBD1.
(§2) For dose-response assays, Nunc MaxiSorp 96-well plates (ThermoScientific), were coated with 5 μg/ml NeutrAvidin Biotin-Binding protein (ThermoScientific) overnight at 4° C. and blocked 2 h at room temperature (RT) with 2% milk in phosphate-buffered saline (PBS). […] 50 μl of 1-Step UltraTMB-ELISA (ThermoScientific) was used as a substrate for the peroxidase and intensity of the reaction was proportional to absorbance measured at 450 nm with SynergyMx (BioTek) after addition of 50 μl H₂SO₄ at 1M.
On the technique in general: An ELISA detects its analyte on a solid surface through an enzyme-linked reagent.

A further experiment concerns the target T2, F508del-2PT-NBD1 (human, UniProt P13569 388-646, biotinylated for the ELISA (sites not given)).
T2 construct: also called F508del-2PT-NBD1 mutant
Briefly: ELISA, biotinylated F508del-2PT-NBD1 on avidin-coated plate, T8 titrated, anti-His detection; normalised to the maximum of T8 on 2PT-NBD1. How it is done:
as §1, §2

Usually EC50 (read off the curve) stands for the concentration that produces a half-maximal response.

T1 sequence (P13569 388-646 V470M/S492P/A534P/I539T limits assumed): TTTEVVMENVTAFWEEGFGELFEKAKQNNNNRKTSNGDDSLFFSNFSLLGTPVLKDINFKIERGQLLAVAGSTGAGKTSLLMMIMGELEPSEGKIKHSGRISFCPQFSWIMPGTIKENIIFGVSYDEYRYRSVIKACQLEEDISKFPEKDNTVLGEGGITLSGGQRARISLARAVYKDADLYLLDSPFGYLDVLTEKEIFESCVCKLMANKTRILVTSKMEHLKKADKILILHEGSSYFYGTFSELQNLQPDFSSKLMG
T2 sequence (P13569 other isoform, or with tags, fused parts or gaps limits assumed, stated change not applied): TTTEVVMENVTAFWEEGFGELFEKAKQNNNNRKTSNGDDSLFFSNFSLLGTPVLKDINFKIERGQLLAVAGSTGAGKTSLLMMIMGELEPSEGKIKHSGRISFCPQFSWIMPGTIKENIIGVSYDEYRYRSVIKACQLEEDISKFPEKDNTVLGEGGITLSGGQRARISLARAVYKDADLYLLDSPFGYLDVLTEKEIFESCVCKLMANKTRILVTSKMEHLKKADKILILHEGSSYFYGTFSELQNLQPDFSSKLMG

B1: Nanobody T8 (VHH, not shown: small tags and cut ends)
VHH: QVQLQESGGGLVQPGGSLRLSCAASGSTSSINAMGWYRQAPGKQREPVAISSSGGDTRYAEPVKGRFTISRDNAQNKVYLQMNSLKPEDTAVYYCWLNWGRTSVNSWGQGTQVTVSS
notes: Llama nanobody; also called Nb T8; T8 Nb
B1: the 50% effective concentration (EC50 (read off the curve)) in experiment [1] is around 10 nM. In the experiment with F508del-2PT-NBD1, the binding result was “no binding (tested: log [T8] about -5.9 M)”.
